Test results: the supplement of paper PMC10126150
± gives the standard deviation of the averaged measurements.

Test system: ATP
Test: switch fluorescence ratio, 500 uM ATP over buffer (Cy3 cluster intensity, sum of 5 cycles each) (fold (ratio)); higher = stronger signal-on switching upon ATP binding; sequences stand for … in TCGTCGGCAGCGTCAGATGTGTATAAGAGACAGTTTTTTTTTTTTTTTTTTTTTTTTT…TC
Conditions: aptamer strand: ATP DNA aptamer (quencher-CACCTGGGGGAGTATTGCGGAGGAAGG + anchor), 100 nM annealed; ATP concentration: 500 uM
Summary of the method: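 The fluorescence ratio divides summed target-cycle Cy3 intensity by summed buffer-cycle Cy3 intensity for each cluster and is averaged per switch-domain sequence. Cy3-labelled switching-strand clusters on a modified Illumina MiSeq flow-cell were annealed to 100 nM quencher-labelled ATP aptamer, then imaged in selection buffer and again after 15 min with 500 uM ATP at 22 °C. Five such cycles were run, with NaOH stripping and re-annealing between them, and clusters outside 100-1000 RFU were excluded.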
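Also: ATP exposure 15 min at 22 °C before imaging.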

Sequence	switch fluorescence ratio
TGGAATTACT	1.26 ± 0.36
CCGTGGTTTT	0.99133 ± 5.8e-05
TCCTGCATGG	1.22 ± 0.037
TGGTTGGGGA	0.994 ± 0.036
TAGGGGTTGT	1.02 ± 0.028
GGGGGTGGAT	1 ± 0.025
CGAGCTTATC	1.2 ± 0.056
CACTAGAAGC	1.037 ± 0.0012
AAAATTTCGC	1.01 ± 0.018
CTTGGGTTTT	0.9548 ± 0.0091
ATTAGTGTCG	1.01 ± 0.046
GTGCTATAGT	1.031 ± 0.0018
GAACACTTAT	1.04 ± 0.044
ATATGTGACG	1 ± 0.033
CTGTTGTGGG	0.989 ± 0.039
TAGGCGGAGC	1.033 ± 0.0063
ATTGATTAGG	0.988 ± 0.043
ATGTTTTTAC	0.949 ± 0.029
ATGGGTATTG	1.009 ± 0.0039
ACACGTCTGG	1.01 ± 0.029
ACTACGCCCG	1.37 ± 0.085
TAAGGTGAGG	1.04 ± 0.023
GCTTAGGATT	1.01 ± 0.033

Sequence	switch fluorescence ratio
TGGGAATACG	1.11 ± 0.048
TAGTTGGGGG	1 ± 0.028
CGGGGTAGGT	0.984 ± 0.027
TTAAACCCAC	1.35 ± 0.023
TGGGGGAACT	0.996 ± 0.019
TTGGTGGGGG	0.989 ± 0.023
CAAGGGGTCC	1.01 ± 0.032
AAAATTTAAA	1 ± 0.051
ATGGTGGTTT	0.998 ± 0.063
TTCTAGTTAC	1.047 ± 0.0056
GGTTTATGGA	1.03 ± 0.024
GGAAGGTTTT	0.97669 ± 0.00029
AGACTTTGAG	1.03 ± 0.061
GCTTTAAGTA	0.992 ± 0.044
GCGCTGTCCG	0.9959 ± 0.0087
TTAGATTGCA	1.001 ± 0.0083
TTGGTATTTT	0.989 ± 0.018
CCGGGGGGGG	1.1 ± 0.17
TGGCACGCGG	0.986 ± 0.019
TAGGTTACCC	1.04 ± 0.046
AGGCCGGTGC	1.04 ± 0.03
GTTTTTAGAT	0.9709 ± 0.0092
GGTTGGGGGC	0.991 ± 0.025

Sequence	switch fluorescence ratio
TCTATTGTAA	0.991 ± 0.049
GAAATCATGT	0.977 ± 0.023
GGGGCGACTA	1.03 ± 0.052
CGTGATCAGA	0.996 ± 0.039
GCATGTTAGG	1.01 ± 0.063
AAGGGGGATC	1 ± 0.032
TTGGGGATAG	1.11 ± 0.17
ACCCTGGACC	1.066 ± 0.0086
ACTAAGAGGG	1.048 ± 0.0032
TCTCGACTCA	0.999 ± 0.02
TAATTTGAGT	1 ± 0.014
GAGATTTAGT	0.973 ± 0.049
TCTTATTGG	1.02 ± 0.028
AAGCTCAATC	1.05 ± 0.032
AAAGGGTCAG	0.996 ± 0.034
TAAAAAGACG	1.04 ± 0.075
GGGGTGGATA	0.996 ± 0.027
TTGAGTGACG	0.9845 ± 0.0025
AGGGAGCAGT	1.018 ± 0.01
TATGAGGGTG	1.08 ± 0.13
GTGCTTAATT	1 ± 0.05
CCGGTCTACA	1.05 ± 0.047
CGTTAATTCG	1 ± 0.028

Sequence	switch fluorescence ratio
GCGAGGTGGG	0.999 ± 0.049
CCTGCTGTCC	1.16 ± 0.051
TTATAAAAGT	0.962 ± 0.011
AAATCGGATA	1.03 ± 0.003
TTTTGGATTA	1 ± 0.039
TTTAATAGGG	0.995 ± 0.036
GATTTTGT	0.969 ± 0.037
TGCCGGGGTT	1.1 ± 0.2
TTTTGGAATG	1.011 ± 0.0027
AATCTGATGT	1.18 ± 0.28
TAAAGGGGAT	1.08 ± 0.16
ACCAATTTGC	1.05 ± 0.043
GGGGGGGGA	1.05 ± 0.026
CCTAATGCCG	0.996 ± 0.04
TTAGAGCTTC	1.01 ± 0.038
TTGGGTACGT	1.02 ± 0.026
GGGATTGAGG	1.01 ± 0.032
GAGGATTTAA	1 ± 0.03
TCGGCACATT	1.46 ± 0.63
CGTCTGCGCG	0.972 ± 0.081
TTTCAATATT	1.03 ± 0.031
TGGGGCCCCA	1.01 ± 0.046
TAAGAAAAGT	0.9745 ± 0.0014

Sequence	switch fluorescence ratio
GGGGGACTTA	0.998 ± 0.043
AATATGATAA	1.01 ± 0.053
GTATAACCCG	0.992 ± 0.026
ATTGGCTGGT	0.9998 ± 0.0052
CGCCATGGAA	1 ± 0.017
AGTCATAAAG	0.984 ± 0.014
GTGGGATTT	0.995 ± 0.022
GGGGGGTTGC	0.967 ± 0.035
ATAAGCCCGT	0.976 ± 0.014
GATTAGCCGG	0.99 ± 0.015
TTGGTTGAAT	0.998 ± 0.011
TTCGCTAGCT	1.03 ± 0.058
TGCGGCTTCG	0.913 ± 0.061
TAAGATGGAG	1 ± 0.021
GGCGTCCTGG	1.03 ± 0.029
GCTCTGGCAA	1.57 ± 0.07
TTATCGAGAA	0.9879 ± 0.0024
GGGTTTTATA	1.016 ± 0.01
ATGGGGATTA	0.9956 ± 0.0092
GAACTTGGGA	0.983 ± 0.058
TTTTAGGCCG	1.03 ± 0.042
GGGTCATAGT	1.012 ± 0.0094
CAGTTTGGGT	1.01 ± 0.081

Sequence	switch fluorescence ratio
TTGAAGTTAT	0.9897 ± 0.0021
GGGCCCGGGT	0.994 ± 0.037
TTAGACGTTC	0.99809 ± 0.00032
AAGAACTAGG	1.03 ± 0.041
CGGATCTGGT	0.968 ± 0.024
TTTAAGAAGT	1 ± 0.027
ATTATCTAAT	1 ± 0.017
GATACCGGGT	1.01 ± 0.022
TATACGGCAC	2.04 ± 0.14
GTTTGCTGGG	0.983 ± 0.035
ATTCAGATCG	0.999 ± 0.034
ATTTACGGTG	1 ± 0.022
TATGTTTT	1.02 ± 0.016
ACGAGTGGGC	1 ± 0.063
GGGCGTAAGG	1.01 ± 0.047
ATTCGGGGGT	0.993 ± 0.023
TTTCGAAGGT	0.987 ± 0.019
CTCCAAGTGA	1.315 ± 0.0062
CATGCGGCCG	0.992 ± 0.02
CCGGAGTTGG	3.49 ± 0.11
CCTTGTACTG	1.07 ± 0.042
TAGGGGCGGC	1.01 ± 0.056
GCAGGTCTGT	0.9688 ± 0.0037

Sequence	switch fluorescence ratio
TTTTTCAATC	1.07 ± 0.035
ATCCGGCGAT	1.35 ± 0.018
ATCTTTATGG	0.964 ± 0.014
GGGGAGATGT	1.01 ± 0.014
GGTTTCTGGG	0.963 ± 0.017
TTATACGGAA	1.11 ± 0.057
TTTTTCCGTA	1.02 ± 0.059
ACGGTGGGGA	1.04 ± 0.036
GTATGTAAT	0.997 ± 0.011
TAAAAGTATG	0.969 ± 0.054
ATGTGCGTAG	1.01 ± 0.017
TACAGGGGGA	1.09 ± 0.14
TATGGGCCGG	1.07 ± 0.018
TCGGAATGGC	1.27 ± 0.23
TATACGGCAT	1.119 ± 0.0049
GACGGAGACC	1.11 ± 0.027
GAGTCAGGTA	1.01 ± 0.029
GGACAATGAG	0.998 ± 0.035
GGCAGAGATG	1.02 ± 0.046
